According to the supplement of paper PMC9112550, “Optimization of the antimicrobial peptide Bac7 by deep mutational scanning” (BMC Biology, 2022):

System: Escherichia coli TOP10
Experiment: shrunken log2 fold change of peptide-encoding DNA abundance (4.5 h post-induction vs induction); higher = less antimicrobial activity (less host growth inhibition)
Settings: time post-induction: 4.5 h; library: site-saturation at positions 5, 18, 19, 20
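Also: peptides expressed intracellularly from a pBAD plasmid library in pooled LB shake-flask culture, induced with 0.3% L-arabinose, DNA abundance read by NGS, three biological replicates, DESeq2 with apeglm shrinkage.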

Q: How did the “shrunken log2 fold change” value turn out when RRIRPRPPRLPRPRPRPCLAPRP was run?
A: Its value is -0.109.

Q: RRIRRRPPRLPRPRPRPCHKPRP was tested. Which “shrunken log2 fold change” value did it give?
A: The value was 0.153.

Q: How did the “shrunken log2 fold change” value turn out when RRIRRRPPRLPRPRPRPQVKPRP was run?
A: The value was 0.132.

Q: Which “shrunken log2 fold change” value does the source give for RRIRGRPPRLPRPRPRPNMMPRP here?
A: The value was 0.0511.

Q: With RRIRVRPPRLPRPRPRPSESPRP as the sequence, how does the “shrunken log2 fold change” value read?
A: Its value is 0.0556.

Q: With RRIRKRPPRLPRPRPRPGHFPRP as the sequence, how does the “shrunken log2 fold change” value read?
A: The value was 0.0417.

Q: Which “shrunken log2 fold change” value does the source give for RRIRSRPPRLPRPRPRPECRPRP here?
A: The value was 0.266.

Q: For RRIRKRPPRLPRPRPRPTKQPRP, which “shrunken log2 fold change” value is on record?
A: The value was -0.0553.

Q: How did the “shrunken log2 fold change” value turn out when RRIRYRPPRLPRPRPRPRWTPRP was run?
A: The value was 0.2.

Q: With RRIRCRPPRLPRPRPRPKCKPRP as the sequence, how does the “shrunken log2 fold change” value read?
A: The value was 0.0809.

Q: Which “shrunken log2 fold change” value does the source give for RRIRIRPPRLPRPRPRPKMAPRP here?
A: Its value is -0.179.

Q: Which “shrunken log2 fold change” value does the source give for RRIRTRPPRLPRPRPRPKTSPRP here?
A: Its value is -0.0907.

Q: RRIRDRPPRLPRPRPRPSYYPRP was tested. Which “shrunken log2 fold change” value did it give?
A: The value was -0.0757.

Q: Which “shrunken log2 fold change” value does the source give for RRIRLRPPRLPRPRPRPDCVPRP here?
A: Its value is 0.0107.

Q: With RRIRKRPPRLPRPRPRPFDIPRP as the sequence, how does the “shrunken log2 fold change” value read?
A: The value was -0.0132.

Q: Which “shrunken log2 fold change” value does the source give for RRIRTRPPRLPRPRPRPKKFPRP here?
A: Its value is -0.403.

Q: How did the “shrunken log2 fold change” value turn out when RRIRCRPPRLPRPRPRPKDPPRP was run?
A: Its value is 0.148.

Q: How did the “shrunken log2 fold change” value turn out when RRIRLRPPRLPRPRPRPARDPRP was run?
A: The value was 0.426.

Q: With RRIRFRPPRLPRPRPRPTAKPRP as the sequence, how does the “shrunken log2 fold change” value read?
A: The value was 0.444.

Q: How did the “shrunken log2 fold change” value turn out when RRIRQRPPRLPRPRPRPLQEPRP was run?
A: The value was -0.129.

Q: With RRIRERPPRLPRPRPRPAKPPRP as the sequence, how does the “shrunken log2 fold change” value read?
A: Its value is -0.248.

Q: With RRIRVRPPRLPRPRPRPSQKPRP as the sequence, how does the “shrunken log2 fold change” value read?
A: Its value is -0.0127.

Q: How did the “shrunken log2 fold change” value turn out when RRIRFRPPRLPRPRPRPVALPRP was run?
A: Its value is -0.128.

Q: For RRIRRRPPRLPRPRPRPDTTPRP, which “shrunken log2 fold change” value is on record?
A: The value was 0.192.

Q: How did the “shrunken log2 fold change” value turn out when RRIRNRPPRLPRPRPRPCDYPRP was run?
A: The value was -0.00992.

Q: With RRIRGRPPRLPRPRPRPFIAPRP as the sequence, how does the “shrunken log2 fold change” value read?
A: The value was 0.245.

Q: How did the “shrunken log2 fold change” value turn out when RRIRPRPPRLPRPRPRPHSRPRP was run?
A: The value was -0.198.

Q: RRIRKRPPRLPRPRPRPVCCPRP was tested. Which “shrunken log2 fold change” value did it give?
A: The value was 0.517.

Q: Which “shrunken log2 fold change” value does the source give for RRIRIRPPRLPRPRPRPTKAPRP here?
A: The value was -0.162.

Q: For RRIRVRPPRLPRPRPRPDFRPRP, which “shrunken log2 fold change” value is on record?
A: The value was 0.00256.

Q: Which “shrunken log2 fold change” value does the source give for RRIRNRPPRLPRPRPRPDCPPRP here?
A: The value was -0.031.

Q: RRIRRRPPRLPRPRPRPVPAPRP was tested. Which “shrunken log2 fold change” value did it give?
A: The value was 1.06.

Q: With RRIRHRPPRLPRPRPRPMPQPRP as the sequence, how does the “shrunken log2 fold change” value read?
A: The value was 0.235.

Q: With RRIRCRPPRLPRPRPRPQMQPRP as the sequence, how does the “shrunken log2 fold change” value read?
A: The value was -0.347.

Q: RRIRKRPPRLPRPRPRPYRKPRP was tested. Which “shrunken log2 fold change” value did it give?
A: Its value is 0.0413.

Q: How did the “shrunken log2 fold change” value turn out when RRIRPRPPRLPRPRPRPWGDPRP was run?
A: Its value is -0.0121.

Q: For RRIRLRPPRLPRPRPRPNHVPRP, which “shrunken log2 fold change” value is on record?
A: The value was -0.449.

Q: Which “shrunken log2 fold change” value does the source give for RRIRVRPPRLPRPRPRPFHPPRP here?
A: The value was -0.309.

Q: How did the “shrunken log2 fold change” value turn out when RRIRKRPPRLPRPRPRPPEDPRP was run?
A: The value was 3.39.

Q: Which “shrunken log2 fold change” value does the source give for RRIRYRPPRLPRPRPRPDWWPRP here?
A: The value was 0.0124.

Q: How did the “shrunken log2 fold change” value turn out when RRIRDRPPRLPRPRPRPRWIPRP was run?
A: Its value is -0.376.

Q: How did the “shrunken log2 fold change” value turn out when RRIRIRPPRLPRPRPRPNAWPRP was run?
A: The value was 0.213.

Q: How did the “shrunken log2 fold change” value turn out when RRIRGRPPRLPRPRPRPCKVPRP was run?
A: Its value is 0.00141.

Q: With RRIRDRPPRLPRPRPRPADIPRP as the sequence, how does the “shrunken log2 fold change” value read?
A: Its value is -0.00114.

Q: For RRIRQRPPRLPRPRPRPHKEPRP, which “shrunken log2 fold change” value is on record?
A: Its value is 0.114.

Q: RRIRFRPPRLPRPRPRPASLPRP was tested. Which “shrunken log2 fold change” value did it give?
A: The value was -0.227.

Q: With RRIRPRPPRLPRPRPRPCDFPRP as the sequence, how does the “shrunken log2 fold change” value read?
A: Its value is -0.179.

Q: RRIRTRPPRLPRPRPRPQKFPRP was tested. Which “shrunken log2 fold change” value did it give?
A: The value was -0.632.

Q: How did the “shrunken log2 fold change” value turn out when RRIRLRPPRLPRPRPRPAWSPRP was run?
A: Its value is 0.103.

Q: How did the “shrunken log2 fold change” value turn out when RRIRYRPPRLPRPRPRPWFCPRP was run?
A: Its value is -0.0679.

Q: For RRIRRRPPRLPRPRPRPNLWPRP, which “shrunken log2 fold change” value is on record?
A: Its value is 0.552.

Q: For RRIRQRPPRLPRPRPRPFYQPRP, which “shrunken log2 fold change” value is on record?
A: Its value is -0.104.

Q: With RRIRARPPRLPRPRPRPVLQPRP as the sequence, how does the “shrunken log2 fold change” value read?
A: Its value is 1.09.

Q: RRIRSRPPRLPRPRPRPPYRPRP was tested. Which “shrunken log2 fold change” value did it give?
A: Its value is -0.119.

Q: Which “shrunken log2 fold change” value does the source give for RRIRGRPPRLPRPRPRPCESPRP here?
A: Its value is 0.169.

Q: RRIRRRPPRLPRPRPRPMMNPRP was tested. Which “shrunken log2 fold change” value did it give?
A: Its value is 0.00643.

Q: Which “shrunken log2 fold change” value does the source give for RRIRQRPPRLPRPRPRPGLGPRP here?
A: Its value is 0.492.

Q: RRIRMRPPRLPRPRPRPCCGPRP was tested. Which “shrunken log2 fold change” value did it give?
A: Its value is 0.215.

Q: Which “shrunken log2 fold change” value does the source give for RRIRQRPPRLPRPRPRPESVPRP here?
A: The value was 0.00473.

Q: For RRIRGRPPRLPRPRPRPNVLPRP, which “shrunken log2 fold change” value is on record?
A: Its value is -0.0548.

Q: RRIRNRPPRLPRPRPRPCRYPRP was tested. Which “shrunken log2 fold change” value did it give?
A: Its value is -0.148.

Q: How did the “shrunken log2 fold change” value turn out when RRIRIRPPRLPRPRPRPRYYPRP was run?
A: The value was -0.372.

Q: RRIRHRPPRLPRPRPRPLHHPRP was tested. Which “shrunken log2 fold change” value did it give?
A: The value was -0.554.

Q: RRIRLRPPRLPRPRPRPGPLPRP was tested. Which “shrunken log2 fold change” value did it give?
A: The value was 0.287.

Q: How did the “shrunken log2 fold change” value turn out when RRIRERPPRLPRPRPRPIDKPRP was run?
A: The value was -0.321.

Q: Which “shrunken log2 fold change” value does the source give for RRIRKRPPRLPRPRPRPQFTPRP here?
A: Its value is -0.0285.

Q: RRIRKRPPRLPRPRPRPWTVPRP was tested. Which “shrunken log2 fold change” value did it give?
A: Its value is -1.8.

Q: How did the “shrunken log2 fold change” value turn out when RRIRLRPPRLPRPRPRPNPWPRP was run?
A: The value was 0.0455.

Q: How did the “shrunken log2 fold change” value turn out when RRIRARPPRLPRPRPRPALDPRP was run?
A: Its value is 0.756.

Q: RRIRHRPPRLPRPRPRPCSGPRP was tested. Which “shrunken log2 fold change” value did it give?
A: The value was -0.0968.

Q: How did the “shrunken log2 fold change” value turn out when RRIRDRPPRLPRPRPRPWMSPRP was run?
A: The value was -0.376.

Q: For RRIRYRPPRLPRPRPRPKTPPRP, which “shrunken log2 fold change” value is on record?
A: The value was 0.103.

Q: RRIRIRPPRLPRPRPRPADLPRP was tested. Which “shrunken log2 fold change” value did it give?
A: The value was 0.0446.

Q: How did the “shrunken log2 fold change” value turn out when RRIRMRPPRLPRPRPRPHYAPRP was run?
A: The value was -0.128.

Q: RRIRYRPPRLPRPRPRPNMCPRP was tested. Which “shrunken log2 fold change” value did it give?
A: The value was 0.00841.
